Data from patent US20260234242A1 (HAINAN SIMCERE ZAIMING PHARMACEUTICAL, published 2026).

Columns and labels:
[1] = target: T1, his-tagged human CDH6 extracellular region protein (hCDH6 ECD-his) (human, UniProt P55285 19-615); assay: ELISA, coated antigen; ELISA, coated hCDH6-his; later run beside the hCDH6-14 humanized antibodies (Table 19)
T1 construct: also called Human CDH6-his; hCDH6-his; not shown: his tag
T1 sequence: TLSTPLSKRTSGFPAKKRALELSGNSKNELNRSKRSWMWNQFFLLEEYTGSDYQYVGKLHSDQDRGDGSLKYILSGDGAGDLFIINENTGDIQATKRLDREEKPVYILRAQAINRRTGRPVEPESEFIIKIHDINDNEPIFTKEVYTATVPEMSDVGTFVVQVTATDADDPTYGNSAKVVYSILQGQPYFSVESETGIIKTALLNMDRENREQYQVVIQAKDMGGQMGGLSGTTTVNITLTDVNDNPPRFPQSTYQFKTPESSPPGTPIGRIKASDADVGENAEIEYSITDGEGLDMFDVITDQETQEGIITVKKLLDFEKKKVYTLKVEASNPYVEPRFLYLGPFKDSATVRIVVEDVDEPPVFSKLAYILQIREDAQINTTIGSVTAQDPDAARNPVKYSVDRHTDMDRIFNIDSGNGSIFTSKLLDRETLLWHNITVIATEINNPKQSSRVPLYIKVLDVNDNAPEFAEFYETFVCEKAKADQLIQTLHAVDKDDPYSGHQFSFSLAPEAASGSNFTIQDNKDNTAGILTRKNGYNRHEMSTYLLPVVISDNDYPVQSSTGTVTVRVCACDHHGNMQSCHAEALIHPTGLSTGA

[2] = target: T2, human CDH6 on tumor cells (OVCAR3 cells, PA-1 cells) (human, UniProt P55285 54-790); assay: FACS, PA-1 cells
T2 sequence: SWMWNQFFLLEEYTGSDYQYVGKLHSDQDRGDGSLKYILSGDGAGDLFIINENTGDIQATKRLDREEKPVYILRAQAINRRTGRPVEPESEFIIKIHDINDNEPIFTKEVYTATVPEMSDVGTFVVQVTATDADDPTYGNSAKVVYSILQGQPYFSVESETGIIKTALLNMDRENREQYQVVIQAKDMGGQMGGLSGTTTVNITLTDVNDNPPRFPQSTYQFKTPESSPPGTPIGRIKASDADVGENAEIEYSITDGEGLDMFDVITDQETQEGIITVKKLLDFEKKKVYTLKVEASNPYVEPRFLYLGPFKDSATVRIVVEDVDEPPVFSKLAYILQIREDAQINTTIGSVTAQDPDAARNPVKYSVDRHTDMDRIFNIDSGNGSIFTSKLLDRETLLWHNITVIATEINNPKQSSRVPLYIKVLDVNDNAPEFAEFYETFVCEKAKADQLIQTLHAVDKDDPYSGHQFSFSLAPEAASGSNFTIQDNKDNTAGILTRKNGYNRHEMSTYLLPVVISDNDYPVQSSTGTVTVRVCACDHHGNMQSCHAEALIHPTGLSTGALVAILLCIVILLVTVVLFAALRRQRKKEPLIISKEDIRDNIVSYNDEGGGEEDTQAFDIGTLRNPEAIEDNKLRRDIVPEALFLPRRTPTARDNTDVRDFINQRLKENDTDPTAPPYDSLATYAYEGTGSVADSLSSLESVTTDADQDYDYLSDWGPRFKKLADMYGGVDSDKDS
Procedure: OVCAR3 cells with high expression of CDH6 and PA-1 cells with moderate expression of CDH6 were used to detect the binding activity of the antibodies to the cells. […] The cells were washed once with PBS, counted, resuspended to 2×10⁶ cells/mL in an FACS buffer (PBS+2% FBS), and then added to a 96-well plate at 50 μL/well. The chimeric antibodies were diluted with FACS buffer (PBS+2% FBS) and added to the 96-well plate at 50 μL/well, and the plate was incubated at 4° C. for 1 h. […] The dilution was added to the 96-well plate at 50 μL/well, and the plate was incubated at 4° C. for 1 h. After the plates were centrifuged and washed 2 times with PBS, the cells were resuspended in an FACS buffer. The mean fluorescence intensity (MFI) was measured using FACS Canton II (BD). Analysis was performed by the GraphPad Prism software, data were fitted, and EC50 values were calculated. The chimeric antibodies tested had strong binding to both OVCAR3 cells and PA-1 cells.
According to the above sequences, heavy chain (HC) and light chain (LC) plasmids were constructed (the nucleic acid sequences encoding the VH and VL of the antibodies were recombined into an expression vector carrying a signal peptide (SEQ ID NO: 132, […]) and a heavy chain constant region/light chain constant region sequence to obtain recombinant plasmids expressing VH-CH1-Fc/VL-CL). According to the expression and purification methods in Example 2, the hCDH6-14 humanized antibodies were obtained, and the binding activity of the humanized antibodies was detected by ELISA and FACS (see 2.2 and 2.3 for the method).

EC50 [1]: 0.034 nM
EC50 [2]: 0.27 nM
Max MFI [2]: 4260 MFI
B1: CHI-CDH6-14 (antibody, human IgG1, kappa, V domains shown)
VH: QIQLQQSGPELVKPGTSVKISCKASGYTFTDNYINWVRQRPGQGLEWIGWIYPGTGNSYYNEKFKGKATLTVDTSSSTAYMQFSSLTSEDSAVYLCASSYGDSFDYWGQGTTLTVSS
VL: DIQMTQTTSSLSASLGNRVTISCRASQDIRNYLNWYQQKPDGTFKLLISYTSRLHSGVPSRFSGSGSGTDYSLTVSNLEPEDIATYYCQQYSQLPWTFGGGSRLEIKR
notes: also called CHI-hCDH6-14; CH1-CDH6-14
